Measurements published in patent US20230210927A1.

Biological target: E1B55K protein (adenovirus early region 1B-55 kDa) (adenovirus type 5) (UniProt P03243)
Assay: cell-based or functional assay

UniProt P03243, sequence (P03243 whole entry): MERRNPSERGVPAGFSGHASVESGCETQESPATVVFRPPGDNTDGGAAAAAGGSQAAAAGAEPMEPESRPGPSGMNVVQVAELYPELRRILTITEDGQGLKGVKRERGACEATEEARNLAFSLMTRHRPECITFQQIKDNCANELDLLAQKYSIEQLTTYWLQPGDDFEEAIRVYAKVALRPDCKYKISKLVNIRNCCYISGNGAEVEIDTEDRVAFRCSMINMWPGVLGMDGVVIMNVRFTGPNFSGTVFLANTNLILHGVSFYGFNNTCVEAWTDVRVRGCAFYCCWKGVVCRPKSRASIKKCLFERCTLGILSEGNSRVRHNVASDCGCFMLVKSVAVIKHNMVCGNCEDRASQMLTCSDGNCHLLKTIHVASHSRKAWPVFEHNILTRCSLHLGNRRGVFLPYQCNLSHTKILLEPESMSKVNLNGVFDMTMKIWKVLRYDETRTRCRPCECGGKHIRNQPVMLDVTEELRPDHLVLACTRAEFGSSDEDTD

E4orf6 protein (adenovirus)
luminescence intensity due to luciferase activity (pGL2-p53 promoter, Dual-Luciferase Reporter Assay) in the MSC-TERT-tetoneE1B55K cell line with doxycycline; 4-fold increase with E1B55K alone: < 1.5 fold
